This passage reports EVT outgrowth and migration (EVT outgrowths/villous tip), 24 h after addition (day 2 of culture) (EVT outgrowths/villous tip), concentration of maximal stimulation of EVT outgrowth and fibronectin (FN) synthesis by villous explants, fold increase relative to control results from patent US7445940.

In this test the target is human endoglin (human) (UniProt P17813). The test can be described thus: cell-based or functional assay.
Sequence of UniProt P17813 (P17813 26-658): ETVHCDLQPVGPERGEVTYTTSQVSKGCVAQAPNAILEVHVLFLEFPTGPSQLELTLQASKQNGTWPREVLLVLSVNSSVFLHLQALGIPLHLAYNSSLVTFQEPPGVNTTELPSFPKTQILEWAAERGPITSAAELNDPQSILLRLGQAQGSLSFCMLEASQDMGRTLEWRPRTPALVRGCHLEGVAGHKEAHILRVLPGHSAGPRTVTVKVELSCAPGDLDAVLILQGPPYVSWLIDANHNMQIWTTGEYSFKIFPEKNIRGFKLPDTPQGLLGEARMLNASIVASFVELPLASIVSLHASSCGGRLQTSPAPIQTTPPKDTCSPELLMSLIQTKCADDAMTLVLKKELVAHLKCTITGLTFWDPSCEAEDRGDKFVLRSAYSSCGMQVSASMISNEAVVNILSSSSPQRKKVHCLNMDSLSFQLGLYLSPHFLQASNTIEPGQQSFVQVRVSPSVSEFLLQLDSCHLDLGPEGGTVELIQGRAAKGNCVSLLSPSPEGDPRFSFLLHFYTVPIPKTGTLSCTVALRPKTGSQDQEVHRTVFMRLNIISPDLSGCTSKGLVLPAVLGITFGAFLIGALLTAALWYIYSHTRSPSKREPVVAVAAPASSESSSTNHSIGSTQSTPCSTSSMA

Consider “Murine monoclonal antibody (MAb) 44G4 specific for human endoglin”, for which the EVT outgrowth and migration (EVT outgrowths/villous tip), 24 h after addition (day 2 of culture) (EVT outgrowths/villous tip) came to 2.03; the concentration of maximal stimulation of EVT outgrowth was found to be 1 µg/mL; the fibronectin (FN) synthesis by villous explants, fold increase relative to control turned out to be 8 fold.
